Earlier results in article PMC3166722.
pKd: −log10 of the molar value. Where two headings read alike, the source gives them in different places.

Assays:
[1] = molecular target: CaM (Homo sapiens) (UniProt P0DP23)
[2] = molecular target: GPC (trypsinized IOVs) (Homo sapiens) (UniProt P04921); test: IOV binding, Scatchard analysis
[3] = molecular target: CaM (Homo sapiens) (UniProt P0DP23); test: resonant mirror detection (IAsys)

GPC (trypsinized IOVs) (Homo sapiens), sequence (P04921 whole entry): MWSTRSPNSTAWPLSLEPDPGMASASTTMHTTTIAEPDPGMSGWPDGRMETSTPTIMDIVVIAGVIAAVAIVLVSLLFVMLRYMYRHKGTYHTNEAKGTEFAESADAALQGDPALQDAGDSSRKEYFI
4.1R135, sequence (P11171 whole entry): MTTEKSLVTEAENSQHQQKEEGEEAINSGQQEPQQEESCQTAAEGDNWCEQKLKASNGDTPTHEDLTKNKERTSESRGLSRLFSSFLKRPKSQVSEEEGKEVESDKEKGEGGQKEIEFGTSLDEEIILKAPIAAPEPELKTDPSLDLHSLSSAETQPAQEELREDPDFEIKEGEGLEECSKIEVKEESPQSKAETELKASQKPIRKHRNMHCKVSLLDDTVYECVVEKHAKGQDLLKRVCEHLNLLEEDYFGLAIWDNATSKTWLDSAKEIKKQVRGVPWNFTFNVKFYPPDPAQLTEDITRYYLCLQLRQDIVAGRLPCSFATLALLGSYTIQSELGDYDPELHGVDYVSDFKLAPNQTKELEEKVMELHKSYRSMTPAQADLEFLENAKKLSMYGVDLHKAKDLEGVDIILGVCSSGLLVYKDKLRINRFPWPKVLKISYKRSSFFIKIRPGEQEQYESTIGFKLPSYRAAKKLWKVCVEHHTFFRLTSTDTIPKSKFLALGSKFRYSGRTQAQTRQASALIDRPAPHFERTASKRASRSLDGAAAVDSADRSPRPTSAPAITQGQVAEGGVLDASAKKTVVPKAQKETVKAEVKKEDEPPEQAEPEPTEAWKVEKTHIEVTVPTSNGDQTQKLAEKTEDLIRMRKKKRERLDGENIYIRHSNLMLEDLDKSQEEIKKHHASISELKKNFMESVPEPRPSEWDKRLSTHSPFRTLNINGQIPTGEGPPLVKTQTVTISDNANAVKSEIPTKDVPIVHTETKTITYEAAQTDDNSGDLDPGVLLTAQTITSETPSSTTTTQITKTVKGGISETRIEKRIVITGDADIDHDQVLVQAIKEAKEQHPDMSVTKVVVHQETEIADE
4.1R80, sequence (P11171 whole entry): as above

pKd [1] | pKd [2] | pKd [3] | Substance
8.00 |  |  | 4.1G (from UniProt O43491)
 | 7.12 |  | 4.1R80 (from UniProt P11171)
 | 5.70 | 7.29 | 4.1R135 (from UniProt P11171)
